B1: Pistol ribozyme (parent)
chain: GGGUCGUUGUUCCAUAAUCGCGUGGAUAUGGCACGCAAGUUUCUACCGGGCACCGUAAAUGUCCGACUGGAGCCGUUCGGGCGGCUAUAAACAGACCUCAGGCCCGAAGCGUGGCGGCACCUGCCGCCGGUGGUAAAAAAGAUCGGAAGAGCACACGUCU

Variants of: B1
Assay: aptazyme ON/OFF ratio, guanine; higher = stronger switching; co-transcriptional cleavage with and without guanine

First: U7A U8G G9C U10G C13U
Second: U7A U8G G9C C12U C13G
The “aptazyme ON/OFF ratio” value of the first is lower: 1.17 for the first, 1.22 for the second.

Compared with U7A U8G G9C C12U C13A, U7A U8G G9C C12U C13U is lower in “aptazyme ON/OFF ratio” value: 1.4 for the first, 1.21 for the second.

Going from U7A U8G G9C U11A C12G C13U to U7A U8G G9C U11A C12G C13A, the “aptazyme ON/OFF ratio” value falls from 1.28 to 1.11.

First: U7A U8G G9C U11A C12G C13G
Second: U7A U8G G9A U10G U11G C12U C13A
The “aptazyme ON/OFF ratio” value of the first is higher: 1.35 for the first, 1.33 for the second.

First: U7A U8G G9A U10G U11G C12U C13G
Second: U7A U8G G9A U10G U11G C12U C13U
The “aptazyme ON/OFF ratio” value of the first is lower: 1 for the first, 1.22 for the second.

First: U7A U8G G9C U10G U11A C12G C13G
Second: U7A U8G G9C U10G U11A C12G C13A
The “aptazyme ON/OFF ratio” value of the first is higher: 1.39 for the first, 1.33 for the second.

First: U7A U8G G9C U10G U11A C12G C13U
Second: U7A U8G G9A U11G C13U
The “aptazyme ON/OFF ratio” value of the first is higher: 1.46 for the first, 1.4 for the second.

Going from U7A U8G G9A U11G C13G to U7A U8G G9A U11G C13A, the “aptazyme ON/OFF ratio” value rises from 1.16 to 1.39.

Compared with U7A U8G G9C C12G C13U, U7A U8G G9C C12G C13G is lower in “aptazyme ON/OFF ratio” value: 1.34 for the first, 1.18 for the second.

Going from U7A U8G G9C C12G C13A to U7A U8G G9C U10C U11G C13U, the “aptazyme ON/OFF ratio” value falls from 1.36 to 1.23.

First: U7A U8G G9C U10C U11G C13A
Second: U7A U8G G9C U10C U11G C13G
The “aptazyme ON/OFF ratio” value of the first is lower: 1.25 for the first, 1.26 for the second.

Going from U7A U8G G9A U11C C13U to U7A U8G G9A U11C C13G, the “aptazyme ON/OFF ratio” value falls from 1.2 to 1.09.

Compared with U7A U8G G9A U11C C13A, U7A U8G G9C U10G U11C C12U C13G is higher in “aptazyme ON/OFF ratio” value: 1.12 for the first, 1.37 for the second.

Compared with U7A U8G G9C U10G U11C C12U C13A, U7A U8G G9C U10G U11C C12U C13U is lower in “aptazyme ON/OFF ratio” value: 1.31 for the first, 1.21 for the second.

First: U7A U8G G9C U11A C13A
Second: U7A U8G G9C U11A C13G
The “aptazyme ON/OFF ratio” value of the first is higher: 1.44 for the first, 1.15 for the second.

Going from U7A U8G G9C U11A C13U to U7A U8G G9C U10G C12G C13A, the “aptazyme ON/OFF ratio” value falls from 1.36 to 1.3.

Compared with U7A U8G G9C U10G C12G C13G, U7A U8G G9C U10G C12G C13U is higher in “aptazyme ON/OFF ratio” value: 1.17 for the first, 1.44 for the second.

Going from U7A U8G G9A U10G U11C C12G C13G to U7A U8G G9A U10G U11C C12G C13U, the “aptazyme ON/OFF ratio” value falls from 1.23 to 1.22.

First: U7A U8G G9A U10G U11C C12G C13A
Second: U7A U8G G9A U10G C12G C13G
The “aptazyme ON/OFF ratio” value of the first is higher: 1.4 for the first, 1.17 for the second.

First: U7A U8G G9A U10G C12G C13A
Second: U7A U8G G9A U10G C12G C13U
The “aptazyme ON/OFF ratio” value of the first is higher: 1.5 for the first, 1.33 for the second.

Compared with U7A U8G G9C C12A C13U, U7A U8G G9C C12A C13G is lower in “aptazyme ON/OFF ratio” value: 1.29 for the first, 1.16 for the second.

Going from U7A U8G G9C C12A C13A to U7A U8G G9C U10G U11G C13U, the “aptazyme ON/OFF ratio” value falls from 1.46 to 1.31.

Going from U7A U8G G9C U10G U11G C13G to U7A U8G G9C U10G U11G C13A, the “aptazyme ON/OFF ratio” value falls from 1.21 to 1.19.

First: U7A U8G G9C U10A U11C C12A C13U
Second: U7A U8G G9C U10A U11C C12A C13G
The “aptazyme ON/OFF ratio” value of the first is higher: 1.5 for the first, 1.28 for the second.

Going from U7A U8G G9C U10A U11C C12A C13A to U7A U8G G9C U10C U11A C12A, the “aptazyme ON/OFF ratio” value rises from 1.17 to 1.21.

First: U7A U8G G9C U10C U11A C12U
Second: U7A U8G G9C U10C U11A C12G
The “aptazyme ON/OFF ratio” value of the first is lower: 1.13 for the first, 1.23 for the second.

Going from U7A U8G G9A U10G U11A C12A C13U to U7A U8G G9A U10G U11A C12A C13G, the “aptazyme ON/OFF ratio” value rises from 1.11 to 1.41.

Going from U7A U8G G9A U10G U11A C12A C13A to U7A U8G G9C U10G U11C C12G C13A, the “aptazyme ON/OFF ratio” value rises from 1.19 to 1.27.

Going from U7A U8G G9C U10G U11C C12G C13G to U7A U8G G9C U10G U11C C12G C13U, the “aptazyme ON/OFF ratio” value rises from 1.3 to 1.4.

Going from U7A U8G G9C U10C U11G C12G C13A to U7A U8G G9C U10C U11G C12G C13U, the “aptazyme ON/OFF ratio” value falls from 1.18 to 1.09.

Going from U7A U8G G9C U10C U11G C12G C13G to U7A U8G G9C U10G C12A C13U, the “aptazyme ON/OFF ratio” value rises from 1.18 to 1.56.

First: U7A U8G G9C U10G C12A C13G
Second: U7A U8G G9C U10G C12A C13A
The “aptazyme ON/OFF ratio” value of the first is lower: 1.1 for the first, 1.31 for the second.

Compared with U7A U8G G9C U11A C12A C13U, U7A U8G G9C U11A C12A C13A is lower in “aptazyme ON/OFF ratio” value: 1.47 for the first, 1.25 for the second.

Going from U7A U8G G9C U11A C12A C13G to U7A U8G G9C U10G U11A C12U C13G, the “aptazyme ON/OFF ratio” value falls from 1.37 to 1.23.

First: U7A U8G G9C U10G U11A C12U C13A
Second: U7A U8G G9C U10G U11A C12U C13U
The “aptazyme ON/OFF ratio” value of the first is lower: 1.33 for the first, 1.42 for the second.

First: U7A U8G G9C
Second: U7A U8G G9C U10A U11G C12G C13A
The “aptazyme ON/OFF ratio” value of the first is higher: 1.97 for the first, 1.14 for the second.

Going from U7A U8G G9C U10A U11G C12G C13G to U7A U8G G9C U10A U11G C12G C13U, the “aptazyme ON/OFF ratio” value falls from 1.72 to 1.25.

Compared with U7A U8G G9C U10G U11A C12A C13U, U7A U8G G9C U10G U11A C12A C13A is lower in “aptazyme ON/OFF ratio” value: 1.47 for the first, 1.16 for the second.

First: U7A U8G G9C U10G U11A C12A C13G
Second: U7A U8G G9C U10A U11A C12U
The “aptazyme ON/OFF ratio” value of the first is lower: 1.38 for the first, 1.44 for the second.

Going from U7A U8G G9C U10A U11A C12G to U7A U8G G9C U10A U11A C12A, the “aptazyme ON/OFF ratio” value rises from 1.36 to 1.5.

Compared with U7A U8G G9C U10A U11G C12U C13A, U7A U8G G9C U10A U11G C12U C13U is higher in “aptazyme ON/OFF ratio” value: 1.21 for the first, 1.35 for the second.

Going from U7A U8G G9C U10A U11G C12U C13G to U7A U8G G9C U10C U11A C13U, the “aptazyme ON/OFF ratio” value falls from 1.26 to 1.22.

From the RNAGym collection of RNA variant scans (doi:10.1021/acssynbio.7b00057)
